The target of the assay is HLA B*07 (Homo sapiens, UniProt P01889). Nature of the assay: T2B7 binding assay (stabilization of HLA B*07 on TAP-deficient T2 cells, FACS). Conditions: for Avg. Fold Inc. @ 200: fold increase over background; for Avg. Fold Inc. @ 200 / Avg. MFI 200: peptide at 200 ug/ml; for Avg. MFI 200: mean fluorescence index; for Binding number (binding score): numerical sum of all the positive assays; for Binding strength: rated strong, moderate, weak or none by number of significantly positive wells. How it is done:
Triplicate wells of peptide at 10, 20, 200 ug/ml were evaluated in each of the T2 B7 binding assays; each assay was repeated 4 times. […] The “binding score” column provides the numerical sum of all the positive assays in the binding summary column.
The T2B7 binding assay method is well described in the literature and operational in the laboratory. This assay relies on the ability of exogenously added peptides to stabilize the class I MHC/beta 2 microglobulin structure on the surface of transporters associated with antigen processing (TAP)-deficient cell lines. Briefly, HLA B*07 T2 cell lines were prepared by incubating overnight (16 hours) at 26° C. Just prior to the binding assay these cells were washed twice in serum-free media. Solutions of the test peptides at three concentrations (final concentration of 10, 20, and 200 ug/ml in RPMI 1640 (Sigma, St. Louis, Mo.)) were plated in triplicate wells of a 96 well, round-bottom assay plate (Beckton Dickinson, Lincoln Park, N.J.). Sixteen wells containing cells without peptide were included in each plate, serving as the no-peptide control (background control) for the assay.
100,000 cells were added to each well, and the plates were then incubated for four hours at 37° C., 5% CO2 The plates were then spun at 110×g for 10 minutes at 4° C., supernatant is discarded and the remaining cells are re-suspended. One hundred uL of diluted primary antibody-containing hybridoma supernatant (1:10 dilution of ME1 supernatant produced by HB-119 cell line from ATCC) in staining buffer (PBS, 5% FBS, 0.1% sodium azide) was added to all of the wells except 8 wells per assay plate (each containing 200 ug/ml of one study peptide, these wells served as controls for non-specific binding of secondary antibody). Primary antibody was incubated with the peptide-pulsed cells for 30 minutes at 4° C. After washing three times, the cells were re-suspended, and 100 uL of a 1:250 dilution of FITC-labeled secondary antibody (FITC labeled Goat F(ab′)2 Anti-mouse IgG (H+L) from Caltag) in staining buffer were added to all wells. The plates were incubated for 30 minutes at 4° C., and subsequently washed three times. The contents of each well were then resuspended in 200 uL of fixing buffer (PBS, 1% paraformaldehyde), and aliquoted into FACS tubes.
The 16 negative control wells in each plate contained no peptide but did contain cells, primary antibody and secondary antibody. An additional set of triplicate wells was plated with peptide at the highest concentration (200 ug/ml), but no primary antibody was added to the wells to control for non-specific secondary antibody binding. One positive control peptide (the known B*07 binder) was tested at three concentrations (in triplicate wells) in each assay plate.
Following fixing, the presence of fluorescent secondary antibody on the surface of T2 cells (gated to the appropriate cell size) was measured at 488 nm on a FACScan flow cytometer (Becton-Dickinson, New Jersey). The mean linear fluorescence […] of 10,000 events was measured and compared to the background fluorescence of cells plated in (no peptide) control wells. A positive response was defined as a 10% increase over baseline MLF and p<0.05, in more than one concentration in each of four assays. The assays are repeated 4 times for each concentration of peptide. Each peptide was tested in a total of 36 wells (triplicate wells, three concentrations, four assays).

Values joined by “and” are separate entries in the source; they are usually repeats but may differ in a detail not shown here. Equal entries are not always repeated.

On to TPAAPSYTLK [WNB7 009], for which the “Avg. Fold Inc. @ 200” value turned out to be 1.5 and the “Avg. MFI 200” value is 954.5. Moreover, for the setting “listed as WNVB7 0009”, the “Binding number (binding score)” value worked out at 8 and the Binding strength entry is recorded as “moderate (stabilized HLA B*07 to a moderate degree (receiving binding scores of 6 to 8))”.

In the case of PFPESNSPIS [WNVB7 3411], the “stabilization of HLA B*07 on the surface of T2B7 cells” value (shortened to “stabilization”) is listed as “did not stabilize T2B7 to a significant degree”, the “Avg. Fold Inc. @ 200” value is given as 1.0, the “Avg. MFI 200” value turned out to be 626.7 and the “Binding number (binding score)” value stood at 1. For the same sequence, the Binding strength result is “non-binder (did not bind (binding score of 2))”.

Consider RPAADGRTVM [WNB7 023], for which the “affinity to B*07 in vitro compared with previously published B*07 epitope GPGHKARVLA (from HIV-1)” value is on record as “much greater affinity”, the “Avg. Fold Inc. @ 200” value is on record as 1.5, the “Avg. MFI 200” value was found to be 979.1 and the “Binding number (binding score)” value was 12. Further, the Binding strength result is “strong (stabilized HLA B7 on the surface of T2B7 cells at more than two concentrations in all four replicate assays, receiving a total binding score of 10, 11, 11, 12, and 12)”.

Take VPGTKIAGML [WNB7 018]: the “Avg. Fold Inc. @ 200” value turned out to be 1.7 and the “Avg. MFI 200” value is reported as 1088.4. Under “listed as WNVB7 0018”, the “Binding number (binding score)” value was 6 and the Binding strength result is “moderate (stabilized HLA B*07 to a moderate degree (receiving binding scores of 6 to 8))”.

With VPCRGQDELV [WNB7 010], the “Avg. Fold Inc. @ 200” value came out at 1.0, the “Avg. MFI 200” value is reported as 658.6, the “Binding number (binding score)” value is 4 and the Binding strength entry was “weak (weak binders (binding score of 4))”.

As to RPQRHDEKTL [WNB7 019], the “affinity to B*07 in vitro compared with previously published B*07 epitope GPGHKARVLA (from HIV-1)” value is “much greater affinity”, the “Avg. Fold Inc. @ 200” value came to 2.8, the “Avg. MFI 200” value is recorded as 1644.6 and the “Binding number (binding score)” value is 11. Also, the Binding strength entry was “strong (stabilized HLA B7 on the surface of T2B7 cells at more than two concentrations in all four replicate assays, receiving a total binding score of 10, 11, 11, 12, and 12)”.

With APAYSFNCLG [WNB7 005], the “Avg. Fold Inc. @ 200” value worked out at 1.2 and the “Avg. MFI 200” value came out at 743.5. The “Binding number (binding score)” value (listed as 0005) is listed as 8. Besides, for the setting “listed as WNVB7 0005”, the “Binding number (binding score)” value is reported as 8 and the Binding strength result is “moderate (stabilized HLA B*07 to a moderate degree (receiving binding scores of 6 to 8))”.

With RPRWIDARVY [WNB7 017], the “affinity to B*07 in vitro compared with previously published B*07 epitope GPGHKARVLA (from HIV-1)” value is “much greater affinity”, the “Avg. Fold Inc. @ 200” value turned out to be 1.9, the “Avg. MFI 200” value is listed as 1714.0 and the “Binding number (binding score)” value was 11. Further, the Binding strength result was “strong (stabilized HLA B7 on the surface of T2B7 cells at more than two concentrations in all four replicate assays, receiving a total binding score of 10, 11, 11, 12, and 12)”.

As for PRTNTILEDN [WNVB7 3415], the “stabilization” value was “did not stabilize T2B7 to a significant degree”, the “Avg. Fold Inc. @ 200” value stood at 0.9, the “Avg. MFI 200” value is on record as 778.6 and the “Binding number (binding score)” value turned out to be 0. For the same sequence, the Binding strength entry was “non-binder (did not bind (binding score of 2))”.

On to EPPEGVKYVL [WNB7 013], for which the “Avg. Fold Inc. @ 200” value is 1.1 and the “Avg. MFI 200” value is listed as 681.7. Where the note is “listed as WNVB7 0013”, the “Binding number (binding score)” value came to 6 and the Binding strength entry is reported as “moderate (stabilized HLA B*07 to a moderate degree (receiving binding scores of 6 to 8))”.

Regarding SPHRVPNYNL [WNB7 020], the “affinity to B*07 in vitro compared with previously published B*07 epitope GPGHKARVLA (from HIV-1)” value was “much greater affinity”, the “Avg. Fold Inc. @ 200” value is given as 2.5, the “Avg. MFI 200” value is 1607.9 and the “Binding number (binding score)” value is listed as 12. The Binding strength result is “strong (stabilized HLA B7 on the surface of T2B7 cells at more than two concentrations in all four replicate assays, receiving a total binding score of 10, 11, 11, 12, and 12)”.

For the sequence TPGLRCLNLD [WNB7 024], the “Avg. Fold Inc. @ 200” value came out at 1.0, the “Avg. MFI 200” value is 849.6, the “Binding number (binding score)” value is given as 2 and the Binding strength result was “non-binder (did not bind (binding score of 2))”.

For PEDIDCWCTK [WNVB7 3399], the “stabilization” value is reported as “did not stabilize T2B7 to a significant degree”, the “Avg. Fold Inc. @ 200” value came to 1.1, the “Avg. MFI 200” value is recorded as 990.3 and the “Binding number (binding score)” value was determined as 1. Also, the Binding strength entry is “non-binder (did not bind (binding score of 2))”.

For the sequence PETPQGLAKI [WNVB7 3403], the “stabilization” value is “did not stabilize T2B7 to a significant degree”, the “Avg. Fold Inc. @ 200” value worked out at 1.0, the “Avg. MFI 200” value is listed as 588.9 and the “Binding number (binding score)” value was 0. Besides, the Binding strength entry was “non-binder (did not bind (binding score of 2))”.

Consider KPTGSASSLV [WNB7 015], for which the “Avg. Fold Inc. @ 200” value is reported as 1.7 and the “Avg. MFI 200” value was determined as 1070.2. Moreover, where the note is “listed as WNVB7 0015”, the “Binding number (binding score)” value is reported as 6 and the Binding strength result is “moderate (stabilized HLA B*07 to a moderate degree (receiving binding scores of 6 to 8))”.

Consider IPAGFEPEML [WNB7 008], for which the “affinity to B*07 in vitro compared with previously published B*07 epitope GPGHKARVLA (from HIV-1)” value is “much greater affinity”, the “Avg. Fold Inc. @ 200” value stood at 1.9, the “Avg. MFI 200” value is listed as 1207.4 and the “Binding number (binding score)” value was 10. The Binding strength entry is “strong (stabilized HLA B7 on the surface of T2B7 cells at more than two concentrations in all four replicate assays, receiving a total binding score of 10, 11, 11, 12, and 12)”.

For NPMILAAGLI [WNB7 007], the “Avg. Fold Inc. @ 200” value is 1.1, the “Avg. MFI 200” value is given as 944.6, the “Binding number (binding score)” value was determined as 2 and the Binding strength entry is reported as “non-binder (did not bind (binding score of 2))”.

For the sequence GPGHEEPQLV [WNB7 011], the “Avg. Fold Inc. @ 200” value is 1.0, the “Avg. MFI 200” value is on record as 848.9, the “Binding number (binding score)” value worked out at 2 and the Binding strength entry was “non-binder (did not bind (binding score of 2))”.

Consider “GPGHKARVLA [HIV-1 B7 1291, reference compound]”, for which the “Avg. Fold Inc. @ 200” value was 2.2 and 1.5 and 1.6; the “Avg. MFI 200” value is 1423.8 and 1370.9 and 1003.9; the “Binding number (binding score)” value was 8 and 9; the Binding strength entry is reported as “moderate (stabilized HLA B*07 to a moderate degree (receiving binding scores of 6 to 8))”. For the setting “listed as WC 1291”, the “Binding number (binding score)” value is “eight to nine” and the Binding strength entry was “moderately well”.

AVKDELNTLL [WNB7 004]: the “Avg. Fold Inc. @ 200” value was found to be 1.0, the “Avg. MFI 200” value worked out at 842.5, the “Binding number (binding score)” value stood at 0 and the Binding strength result was “non-binder (did not bind (binding score of 2))”.

These data come from patent US20050048073A1, “Methods of determining west nile virus epitopes and method of using the same” (priority 2001, published 2005).
